From the RNAGym collection of RNA variant scans (doi:10.1073/pnas.2313332121)

B1: TPR t1 (parent)
chain: GACCAAUCUGCCCUCAGAGCUCGAGAACAUCUUCGGAUGCAGAGGAGGCAGGCUUCGGUGGCGCGAUAGCGCCAACGUCCUCAACCUCCAAUGCAUCCCACCACAUGAUGAUGCCUGAAGAGCCUUGGUUUUUUG

Variants of: B1
Assay: polymerase ribozyme fitness, log enrichment relative to wild type (log ratio); higher = more active; in vitro selection for triplet polymerase activity
Outline: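 Fitness measures genotype enrichment against wild-type enrichment on a logarithmic scale, with inverse-variance-weighted averaging of replicates. The logarithm is base 2, and genotypes were kept only with ≥10 input reads and ≥1 read per output in Illumina sequencing. The sequenced libraries came from one triplicate in vitro selection round, including frozen incubation at −7 °C, of PCR-built, transcribed mutant libraries of each subunit of a heterodimeric triplet polymerase ribozyme.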

Row | Variant | polymerase ribozyme fitness (log ratio)
1 | GACAAAUCUGCCCUCAGAGCUCAAGAACAUCUUCGGAUGCAGAGGAGGCGGGCUUCGGUGCCGCGAUAGCGCCAACGUCCUCAACCCCCAAUGCGUCCCACCACAUGAUGAUGCCUUAAGAGGCUUGGUUUUUUG | -6.54
2 | GACAAAUCUGCCCUCAGAGCUCGAGAACAUCUUCGCAUGCACAGGAGGAAGGCUUCGGUGGCGCGAUAGCGCCAACGUCCUCAACCUCCAAUGCAUCCCACCACAUGAUGAUGCCUGAAGAGCUUUGGUUUUUUG | -4.12
3 | GACAAAUCUGCCCUCAGAGCUCGAGAACAUCUUCGGAUGCAGAGAAGGCAGCCUUCGGUGGCGCGAUAGCGCCAACGUCCUCAACCUCCAAUGCAUCCCACCACAUGAUGAUGCCUGAAGAGCCUUGGUUUUUUG | -2.98
4 | GACAAAUCUGCCCUCAGAGCUCGAGAACAUCUUCGGAUGCAGAGGAGGCAGGCUUCGGUGGCGCGAUAGCGCCAACGUCCUCAACGUCCAAUGCAUCCCACCACAUGAUGAUGCCUGAAGAGCCUUGGUUUUUUG | -2.58
5 | GACAAAUCUGCCCUCAGAGCUCGAGAACAUCUUCGGAUGCAGAGGAGGCAGGCUUCGGUGGCGCGAUAGCGCCAACGUCCUCAACAUCCAAUGCAUCCCACCACAUGAUGAUGCCUGAAGAGCCUUGGUUUUUUG | -2.74
6 | GACAAAUCUGCCCUCAGAGCUCGAGAACAUCUUCGGAUGCAGAGCAGGCAGGCUUCGGUGGCGCGAUAGCGCCAACGUCCUCAACCUCCAAUGCAUCCCACCACAUGAUGAUGCCUGAAAAGCCUUCGUUUUUUG | -1.29
7 | GACAAAUCUGCCCUCAGAGCUCGAGAACAUCUUCGGAUGCAGAGAAGGCAGGCUUCGGUGGCGCGAUAGCGACAACGUCCUCAACCUCCAAUGCAUCCCACCACAUGAUGAUGCCUGAAGAGACUUGGUUUUUUG | -0.972
8 | GACAAAUCUGCCCUCAGAGCUCGAGAACAUCUUCGGAUGCAGAGGAGGCAGGCUUCGGUGGCGCGAUAGCGUCAACGUCCUCAACCUCCAAUGCAUCCCACCACAUGAUGAUGCCUGAAGAGCCUUGGUUUUUUG | -1.93
9 | GACAAAUCUACCCUCAGAGCUCGAGAACAUCUUCGGAUGCAGAGGAGGCAGGGUUCGGUUGCGCGAUAGUGCCUACGUCCUCAACCUCCAAUGCAUCCCACCACAUGAUGAUGCCUGAAGAGACUUGGUUCUUUG | -1.36
10 | GACAAAUCUGCCCUCAGAGCUCGAGAACAUCUUCGGAUGCAGAGGAGGCAGGCUUCGGUGGCGCGAUAGGGCCAACGUACUCAACCUCCAAUGCAUCCCACCACAUGAUGAUGUCUGAAGAGCCUUGGUUUUUUG | -5.9
11 | GACAAAUCUGCCCUCAGAGCUCGAGAACAUCUUCGGAUGCAGAGGAGGCAGGCUUCGGUGGCGCGAUAGCGCCAACGUCCUCAACCUCCAAUGCAUCCCACCACAUGAUGAUGUCUGAAGAGCAUUGGUUUUUUG | -2.3
12 | GACAAAUCUGCCCUCAGAGCUCGAGAACAUCUUCGGAUGCAGAGGAGGCAGGCUUCGGUGGCGCGAUAGCGUCAACGUCCUCAACCUCCAAUGCAUCCCACCACAUGAUGAUGCCUGAAGAGCCUUGGUAUUUUG | -2.53
13 | GACAAAUCUGCCCUCAGAGCUCGAGAACAUCUUCGGAUGCAGAGGAGGCAGGCUUCGGUGGCGCGAUAGCGCCAACGUCCUCAACCUCCAAUGCAUCCCACCAAAUGAUGAUGCCUGAAGAGCCUUGGUUUUUUG | -2.32
14 | GACAAAUCUGCCCUCAGAGCUCGAGAACAUCUUCGGAUGCAGAGGAGGCAGGCUUCGGUGGCGCGAUAGCGUCAACGUCCACAACCUCCAAUGCAUCCCACCACAUGAUGAUGCCUUAAGAACCUUGGUUUAUUG | -6.42
15 | GACAAAUCUGCCCUCAGAGCUCGAGAACAUCUUCGAAUGCAGAGGAGGCAGGCUUCGGUGGCGCGAUAGCGCAAACGUCCUCAACCUCCAAUGCAUCCCACCACAUGAUGAUGCCUGAAGAGCCUUGGUUUUUUG | -3.19
16 | GACAAAUCUGCCCUCAGAGCUCGAGAACAUCUUCGGAUGCAGAGGAGGCAGGCUUCGGUGGCGCGAUAGCGCCAACGUCCUCAACCUCCAAUGCAUCCCACCACAUGAUGAUGGCUGAAGAGCCUUGGUUUUUUG | -4.25
17 | GACAAAUCUGCCCUCAGAGCUCGAGAACAUCUUCGGAUGCAGAGGAGCCAGGCUUCGGUGACGCGAUAGCGCCAACGUCCCCAACCUCCAAUGCAACCCACCACAUGAUGAUGCCUGAAGAGCCUUGGUUUUUUG | -3.76
18 | GACAAAUCUGCCCUCAGAGCUCGAGAACAUCUUCGGAUGCAGAGGAGGCAGGCUUCGGUGGCGCGAUAGCGCCAACGUCCUCAACCUUCAAUGCAUCCCACCACAUGAUGAUGCCUGAAUAGCCUUGGUUUUUUG | -2.67
19 | GACAAAUCUGCCCUCAGAGCUCGAGAACAUCUUCGGAUGCAGAGGAGGCAGGCUUCGGUGGCGCGAUAGCGUCAACGUCCUCAACCUCCAAUGCAUCCCACCACAUGAUGAUGCCUCAAGAGCCUUGGUUAUUUG | -5.79
20 | GACAAAUCUGCCCUCAGAGCUCGAGAACAUCUUCGGAUGCAGAGGAGGCAGAAUUCGGUGGCGCGAUAGCGUCAACGUCCUCAACCUCCUAUGCAUCCCACCACAUGAUGAUGCCUGAAGAGCCUUGGUCUUUUG | -3.37
21 | GACAAAUCUGCCCUCAGAGCUCGAGAACAUCUUCGGAUGCAGAGGAGGCAGGCUUCGGUGGCGCGAUAGCGUCAACGUCCUCAACCUCCAAUGCAUCCCACCACAUGAAGAUGCUUGAAGAGCCUUGGUUUUUUG | -6.54
